Where “and” joins values, the source holds several entries; their conditions need not be identical. Equal entries are not always repeated.
Molecular target: SMV helper component protease tagged with the Flag epitope at the N-terminus (soybean mosaic virus strain G7H)
Experiment: affinity purification with mass spectrometry; crude extract of upper symptomatic soybean leaves at 15 dpi (20 mM Tris-HCl pH 7.5, 300 mM NaCl, 5 mM MgCl2, 5 mM dithiothreitol, 0.5% Triton X-100); anti-Flag antibody-conjugated agarose beads 16 h at 4 °C, five washes; 10% SDS-PAGE, Coomassie blue, dominant bands excised and identified by LC-MS/MS; Flag-tagged GFP as negative control

SMV helper component protease tagged with the Flag epitope at the N-terminus (natural protein)
stoichiometry N: 4 and 2

From article PMC4772626
